Results from patent US20230002757A1 (ZHEJIANG NANOMAB TECHNOLOGY CENTER, published 2023).
Changes are numbered by the printed parent chain.

T1: BCMA on RPMI8226 cells (UniProt Q02223 1-184, limits assumed)
T1 construct: whole, on cells
T1 sequence (looked up): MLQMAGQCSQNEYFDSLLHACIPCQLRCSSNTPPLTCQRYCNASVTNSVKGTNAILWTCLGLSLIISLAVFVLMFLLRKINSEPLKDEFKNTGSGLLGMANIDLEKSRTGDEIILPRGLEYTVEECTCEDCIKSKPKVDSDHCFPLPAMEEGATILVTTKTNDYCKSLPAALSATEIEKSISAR

T2: BCMA-His (human, UniProt Q02223 1-54)
T2 construct: coating antigen, 1 ug/mL; also called His-conjugated human BCMA; not shown: His tag
T2 sequence (looked up): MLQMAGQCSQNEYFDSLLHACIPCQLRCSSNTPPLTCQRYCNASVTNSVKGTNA

T3: BCMA-Fc (human, UniProt Q02223 1-54)
T3 construct: coating antigen, 1 ug/mL; also called Fc-conjugated human BCMA; not shown: Fc
T3 sequence (looked up): T2 sequence (looked up)

B1: 504#SS13 (Fc fusion, not shown: a dimerising Fc or GST; small tags and cut ends)
VHH: EVQVVESGGGSVQPGGSLRLSCAASGRGFTEHAMGWYRQSPGKEREFVAGISSGGSTYYADSVKGRFTVSRDSAGNTVALQMDSLKPEDTAVYYCSYKRGRYPDGVSTLEYWGQGTQVTVSS
notes: VHH-FC construct from HEK293 cells
B2: NBL501#009 (VHH)
VHH: EVQVVESGGGLVQAGGSLRLSCVASGFTFSVAAMRWYRQAPGKQREWVASAFSDGNLHYEDFVKGRFTISRDDAKNTLYLQMDSLKPEDTAVYYCNAGTPSRAYWGQGTQVTVSS
notes: tested as supernatant in ELISA
B3: NBL501#008 (VHH)
VHH: QVQLVESGGGLVQAGGSLRLSCVASGIVFRLNAMGWFRQAPGRERELVATIASGGWAYYGDTMSGRVTISRDNDKNTLYLEMNSLKPEDSAMYYCSAGGARPHSWGQGTQVTVSS
notes: as for B2
B4: NBL501#002 (VHH)
VHH: QVQLVESGGGLVQAGGSLRLSCAASISIRRINAMGWYRQAPGKERELVAVISSPNKTLYADSVKGRFTISKDNYTNTLYLQMNSLKPEDTAMYYCSAWRIGVDTTDYYGQGTQVTVSS
notes: as for B2
B5: NBL501#004 (VHH)
VHH: EVQVVESGGGLVQAGGSLRLSCVPSGSISSIYAMGWYRQALGPERELVAAQTLGGGTYYANPVKGRFTIYRDNDKNTLYLQMNNLKPEDTAMYYCATPGEHWGSSDVTNWGQGTQVTVSS
notes: as for B2
B6: NBL501#003 (VHH)
VHH: QVQLVESGGGLVQPGGSLRLSCAASGITLDYYAIGWFRQAPGKEREGVSCISSSGGSTNYADSVKGRFTMSRDNAKNTVYLQMNSLKPEDTAVYYCAADIHCSGYVLFSPSDFGNWGQGTQVTVSS
notes: as for B2
B7: NBL501#010 (VHH)
VHH: QVKLEESGGGLVQAGGSLRLSCVASGSIFSINAMGWYRRAPGKERELVASISSDGSIYYADSVKGRFTISRDNAKNTLYLQMNSLKPEDTAMYDCAALGVVNVGVRPTLEYIYWGQGTQVTVSS
notes: as for B2
B8: NBL501#007 (VHH)
VHH: QVQLVESGGGLVQPGGSLTLSCAASGFTFSSYYMSWVRQAPGKGPEWVSIISTGGASTVYTDSVKGRFTASRDNAKNTLYLQMNSLKPEDTALYYCVRGNSRSGLIPRAYWGQGTQVTVSS
notes: as for B2
B9: NBL501#011 (VHH)
VHH: QVQLVESGGGLVQAGGSLRLSCAVFGNTGAIHAMAWYRQAPGKQREEVARISFGDGRTVYGDSVKGRFTISGDDAKNTMYLQMNILKAEDTAEYYCNAVFLGIGPTGRFEYEYWGQGTQVTVSS
notes: as for B2
B10: NBL501#006 (VHH)
VHH: QVQLVESGGGLVQAGGSLRLSCAASGSADSIPAMGWYRQAPGKEREYLAAISSGTNTYYASSAKGRFAISRNNANNTLYLQMNSLKPEDTAMYYCATCSSYYYCSGPYVRSWGQGTQVTVSS
notes: as for B2
B11: NBL507-A1L1-P1R2-1D2-(9)-PME207-SEQF_A02 (VHH)
VHH: QVQLVESGGGLVQPGGSLRLSCAASGFTFSSSAMSWARQAPGKGLECVSDIYPDGTSSYADSMKGRFTISRDNTRNTMYLQMNVLKPEDTATYYCVIGRGGYAMGDRRLRGQGTQVTVSS
notes: purified VHH
B12: NBL507-A1L1-P1R2-1A1-(1)-PME207-SEQF_A01 (VHH)
VHH: EVQLVESGGGLVQPGGSLRLSCAASGFTFRSSAMSWARQAPGKGLEWVSDIYPDGRTDYADSIKGRFTMSRDNAKNTVYLLMDSLKPEDTAVYHCQVGRYVSGVYYQPRGQGTQVTVSS
notes: purified VHH; also called lAl
B13: NBL507-A1L1-P1R2-1B8-(44)-PME207-SEQF_D06 (VHH)
VHH: QVQLVESGGGLVQPEGSLRLSCAASGSIFSIYAMGWYRQAPGKQRGLVAAITSGGDTFYADSVKGRFTISRDNARNTVYLQMNNLKSEDTAVYDCNGAPWGDHAPLVASWGQGTQVTVSS
notes: purified VHH
B14: NBL507-A2L1-P1R2-1C1-(273)-PME207-SEQF_E11 (VHH)
VHH: QVQLVESGGGLVHPGGSLRLDCAVSERIASFNVMGWYRQAPGQQREVVATITSVGRTYYADSVKGRFTIAKDNDKNTYLQMNSLKPEDTAVYYCKAVIVGTYDTEYWGQGTLVTVSS
notes: purified VHH
B15: NBL507-A2L1-P1R2-1H1-(275)-PME207-SEQF_G11 (VHH)
VHH: B14 VHH with D21A, V24A, A29L, A70F, D74G, N82S, I98T, T101D, Y102V, L112Q
notes: purified VHH
B16: NBL507-A1L1-P1R2-1E2-(10)-PME207-SEQF_B02 (VHH)
VHH: EVQLVESGGGLVQPGGSLRLSCAASGSISSIYAMGWYRQAPGKLRELVAAITTGGSTFYRDSVKGRFTISRDNVANTVYLQMNSLKPEDTAVYHCNGAPWGDIAPVAVSWGQGTQVTVSS
notes: purified VHH
B17: NBL507-A1L1-P1R2-1B6-(31)-PME207-SEQF_G04 (VHH)
VHH: QVQLVESGGGLVQPGGSLRLSCAASGFTFSPSAMSWARQAPGKGLEWVSGIYSDGSTYYRDSVKGRFTISRDNARNMVYLQMNSLKPEDTAVYYCALGAMREGVYSDLLGQGTQVTVSS
notes: purified VHH

target: T4, PD-1 protein (human, UniProt Q15116 25-167, limits assumed); test: blocking ELISA, PD-1 coated, competitor biotin PD-L1
T4 construct: also called human PD-1
T4 sequence (Q15116 25-167 limits assumed): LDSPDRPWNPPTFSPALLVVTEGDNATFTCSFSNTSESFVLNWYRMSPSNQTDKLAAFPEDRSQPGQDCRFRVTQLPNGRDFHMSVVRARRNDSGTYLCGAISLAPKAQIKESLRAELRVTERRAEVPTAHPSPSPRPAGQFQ
Protocol: Each well of 96-well microtiter plates is coated with 2 μg/ml of PD-1 protein in PBS and blocked with 1% BSA. […]
The intensity of the developed color is measured at 450 nm. Wells with no added PD-1 and no added VHH-FC are negative and positive controls, respectively.

Binder	OD450 of PD-L1 bound, antibody at 0.15 µg/mL [OD450]	OD450 of PD-L1 bound, antibody at 0.61 µg/mL [OD450]	OD450 of PD-L1 bound, antibody at 2.42 µg/mL [OD450]	OD450 of PD-L1 bound, antibody at 9.75 µg/mL [OD450]
B1	3.34	3.33	3.29	3.33

target: T5, MSLN epitope domain 3 (UniProt Q13421 487-598, limits assumed); test: ELISA, supernatant
T5 construct: domain: domain 3; also called domain 3 of MSLN
T5 sequence (Q13421 495-606 limits assumed): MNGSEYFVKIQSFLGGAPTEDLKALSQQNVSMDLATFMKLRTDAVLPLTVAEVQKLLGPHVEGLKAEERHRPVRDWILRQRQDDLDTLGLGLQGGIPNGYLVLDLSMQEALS

Binder	binding result
B2	no binding
B3	no binding
B4	no binding
B5	no binding

target: T6, MSLN epitope domain 1 (UniProt Q13421 296-390, limits assumed); test: ELISA, supernatant
T6 construct: domain: domain 1; also called domain 1 of MSLN
T6 sequence (Q13421 296-390 limits assumed): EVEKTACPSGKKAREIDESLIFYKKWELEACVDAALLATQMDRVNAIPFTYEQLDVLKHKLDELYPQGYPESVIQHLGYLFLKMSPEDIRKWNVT

Binder	binding result
B2	no binding

target: T7, MSLN epitope domain 2 (UniProt Q13421 391-486, limits assumed); test: ELISA, supernatant
T7 construct: domain: domain 2; also called domain 2 of MSLN
T7 sequence (Q13421 other isoform, or with tags, fused parts or gaps limits assumed): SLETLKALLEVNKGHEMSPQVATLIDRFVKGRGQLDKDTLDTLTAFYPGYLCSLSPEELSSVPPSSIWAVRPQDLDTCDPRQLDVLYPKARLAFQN

Binder	binding result
B3	no binding
B4	no binding
B5	no binding

target: T8, mesothelin (MSLN), full length (UniProt Q13421 296-598, limits assumed); test: ELISA, supernatant
T8 construct: coating antigen of the ELISA; construct not described
T8 sequence (Q13421 other isoform, or with tags, fused parts or gaps limits assumed): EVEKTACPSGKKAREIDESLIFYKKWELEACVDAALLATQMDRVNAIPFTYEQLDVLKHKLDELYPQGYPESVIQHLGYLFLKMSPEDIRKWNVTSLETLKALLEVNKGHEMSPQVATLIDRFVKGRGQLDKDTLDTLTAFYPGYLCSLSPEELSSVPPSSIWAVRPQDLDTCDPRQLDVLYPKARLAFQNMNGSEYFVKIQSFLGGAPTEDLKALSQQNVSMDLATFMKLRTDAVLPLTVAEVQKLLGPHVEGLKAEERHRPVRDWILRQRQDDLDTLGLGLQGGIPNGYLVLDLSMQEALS

Binder	binding result
B6	no binding
B7	no binding
B8	no binding
B9	no binding
B10	no binding

target: T1, BCMA on RPMI8226 cells; test: FACS on RPMI8226 cells

Binder	MFI [MFI]
B11	1260
B12	2420
B13	1810
B14	764
B15	532
B16	2550
B17	864

target: T9, human IgG; test: ELISA, human IgG coated 1 ug/mL
T9 construct: ELISA coating control

Binder	OD450 [OD450]
B11	0.02
B12	0.03
B13	0.01
B14	0.03
B15	0.04
B16	0.03
B17	0.03

target: T10, EGFR on 293T-EGFR cells (293T cells negative for BCMA expression) (UniProt P00533 25-1210, limits assumed); test: flow cytometry
T10 construct: whole, on cells; negative control cells; that they carry EGFR is read from the label only

Binder	binding result
B11	no binding
B12	no binding
B13	no binding
B14	no binding
B15	no binding
B16	no binding
B17	no binding

target: T2, BCMA-His; test: ELISA, BCMA-His coated 1 ug/mL

Binder	OD450 [OD450]
B11	2.32
B12	2.37
B13	2.27
B14	2.28
B15	2.11
B16	2.37
B17	2.25

target: T3, BCMA-Fc; test: ELISA, BCMA-Fc coated 1 ug/mL

Binder	OD450 [OD450]
B11	2.35
B12	2.47
B13	2.47
B14	3.12
B15	3.3
B16	2.53
B17	2.52

target: T4, PD-1 protein; test: ELISA, PD-1 coated
Protocol: 2 μg/ml of PD-1 protein is coated on 96-well plates overnight for ELISA binding assay. Recombinant VHH-FC proteins are added to the wells and allowed to stand for a period of time, then 1 μg/ml of HRP-conjugated anti-FC antibody is added as detection antibody and the assay reagents are added. The absorbance is read at 450 nm. Binding of nivolumab serves as a positive control and plates coated with BSA are used as the negative control group.

Binder	OD450 at 0.002 µg/mL [OD450]	OD450 at 0.02 µg/mL [OD450]	OD450 at 0.2 µg/mL [OD450]	OD450 at 2 µg/mL [OD450]
B1	0.03	0.03	0.03	0.03

target: T11, Anti-His; test: ELISA, Anti-His coated 1 ug/mL
T11 construct: ELISA coating control

Binder	OD450 [OD450]
B11	0.57
B12	2.1
B13	1.79
B14	0.71
B15	0.98
B16	2.44
B17	1.96

target: T10, EGFR on 293T-EGFR cells (293T cells …); test: FACS on 293T-EGFR cells (BCMA negative)

Binder	MFI [MFI]
B11	222
B12	230
B13	219
B14	222
B15	222
B16	227
B17	216
